Reference: IntAct's records for PubMed 21408167

B1: Death-associated protein kinase 2 (Homo sapiens), Q9UIK4-2 (parent)
chain: MFQASMRSPNMEPFKQQKVEDFYDIGEELGSGQFAIVKKCREKSTGLEYAAKFIKKRQSRASRRGVSREEIEREVSILRQVLHHNVITLHDVYENRTDVVLILELVSGGELFDFLAQKESLSEEEATSFIKQILDGVNYLHTKKIAHFDLKPENIMLLDKNIPIPHIKLIDFGLAHEIEDGVEFKNIFGTPEFVAPEIVNYEPLGLEADMWSIGVITYILLSGASPFLGDTKQETLANITAVSYDFDEEFFSQTSELAKDFIRKLLVKETRKRLTIQEALRHPWITSKGEGRAPEQRKTEPTQLKTKHLREYTLKCHSSMPPNNSYVNFERFACVVEDVARVDLGCRALVEAHDTIQDDVEALVSIFNEKEAWYREENESARHDLSQLRYEFRKVESLKKLLREDIQATGCSLGSMARKLDHLQAQFEILRQELSADLQWIQELVGSFQLESGSSEGLGSTFYQDTSESLSELLSRSCTEEFLAGWKL

Variants of: B1
Conditions: with atf4_human ATF4, P18848
Chain of atf4_human ATF4, P18848 (P18848 whole entry): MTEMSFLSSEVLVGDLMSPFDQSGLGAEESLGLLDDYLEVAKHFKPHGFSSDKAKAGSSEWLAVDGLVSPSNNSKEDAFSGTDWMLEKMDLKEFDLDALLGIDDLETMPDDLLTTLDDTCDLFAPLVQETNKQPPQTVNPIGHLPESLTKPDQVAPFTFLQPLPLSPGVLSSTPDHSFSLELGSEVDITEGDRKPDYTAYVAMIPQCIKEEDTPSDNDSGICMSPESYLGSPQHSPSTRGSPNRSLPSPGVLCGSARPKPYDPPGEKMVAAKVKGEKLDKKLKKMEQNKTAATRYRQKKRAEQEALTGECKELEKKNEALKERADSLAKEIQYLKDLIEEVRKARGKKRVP

Row | Variant | effect of a mutation on the interaction
1 | L434A;I441A;F448A | decreasing interaction
